Assay results: patent publication US8808980B2, “Stabilized open form transglutaminase as a diagnostic indictor for autoimmune diseases” (Zedira GmbH, priority 2009, dated 2014)

B1: TG2 ΔE447: tissue transglutaminase deletion mutant lacking C-terminal amino acids from position E447 (protein, UniProt P21980 1-446, looked up, fragment)
chain: MAEELVLERCDLELETNGRDHHTADLCREKLVVRRGQPFWLTLHFEGRNYEASVDSLTFSVVTGPAPSQEAGTKARFPLRDAVEEGDWTATVVDQQDCTLSLQLTTPANAPIGLYRLSLEASTGYQGSSFVLGHFILLFNAWCPADAVYLDSEEERQEYVLTQQGFIYQGSAKFIKNIPWNFGQFEDGILDICLILLDVNPKFLKNAGRDCSRRSSPVYVGRVVSGMVNCNDDQGVLLGRWDNNYGDGVSPMSWIGSVDILRRWKNHGCQRVKYGQCWVFAAVACTVLRCLGIPTRVVTNYNSAHDQNSNLLIEYFRNEFGEIQGDKSEMIWNFHCWVESWMTRPDLQPGYEGWQALDPTPQEKSEGTYCCGPVPVRAIKEGDLSTKYDAPFVFAEVNADVVDWIQQDDGSVHKSINRSLIVGLKISTKSVGRDEREDITHTYKYP
B2: TG2 ΔS538: tissue transglutaminase deletion mutant lacking C-terminal amino acids from position S538 (protein, UniProt P21980 1-537, looked up, fragment)
chain: MAEELVLERCDLELETNGRDHHTADLCREKLVVRRGQPFWLTLHFEGRNYEASVDSLTFSVVTGPAPSQEAGTKARFPLRDAVEEGDWTATVVDQQDCTLSLQLTTPANAPIGLYRLSLEASTGYQGSSFVLGHFILLFNAWCPADAVYLDSEEERQEYVLTQQGFIYQGSAKFIKNIPWNFGQFEDGILDICLILLDVNPKFLKNAGRDCSRRSSPVYVGRVVSGMVNCNDDQGVLLGRWDNNYGDGVSPMSWIGSVDILRRWKNHGCQRVKYGQCWVFAAVACTVLRCLGIPTRVVTNYNSAHDQNSNLLIEYFRNEFGEIQGDKSEMIWNFHCWVESWMTRPDLQPGYEGWQALDPTPQEKSEGTYCCGPVPVRAIKEGDLSTKYDAPFVFAEVNADVVDWIQQDDGSVHKSINRSLIVGLKISTKSVGRDEREDITHTYKYPEGSSEEREAFTRANHLNKLAEKEETGMAMRIRVGQSMNMGSDFDVFAHITNNTAEEYVCRLLLCARTVSYNGILGPECGTKYLLNLNLEPF
B3: open TG2: recombinant TG2 stabilized in its open form by reaction with the inhibitor Z-PIMen(OEt)-QPL-OMe (protein, UniProt P21980 2-687, looked up)
Protein-glutamine …: AEELVLERCDLELETNGRDHHTADLCREKLVVRRGQPFWLTLHFEGRNYEASVDSLTFSVVTGPAPSQEAGTKARFPLRDAVEEGDWTATVVDQQDCTLSLQLTTPANAPIGLYRLSLEASTGYQGSSFVLGHFILLFNAWCPADAVYLDSEEERQEYVLTQQGFIYQGSAKFIKNIPWNFGQFEDGILDICLILLDVNPKFLKNAGRDCSRRSSPVYVGRVVSGMVNCNDDQGVLLGRWDNNYGDGVSPMSWIGSVDILRRWKNHGCQRVKYGQCWVFAAVACTVLRCLGIPTRVVTNYNSAHDQNSNLLIEYFRNEFGEIQGDKSEMIWNFHCWVESWMTRPDLQPGYEGWQALDPTPQEKSEGTYCCGPVPVRAIKEGDLSTKYDAPFVFAEVNADVVDWIQQDDGSVHKSINRSLIVGLKISTKSVGRDEREDITHTYKYPEGSSEEREAFTRANHLNKLAEKEETGMAMRIRVGQSMNMGSDFDVFAHITNNTAEEYVCRLLLCARTVSYNGILGPECGTKYLLNLNLEPFSEKSVPLCILYEKYRDCLTESNLIKVRALLVEPVINSYLLAERDLYLENPEIKIRILGEPKQKRKLVAEVSLQNPLPVALEGCTFTVEGAGLTEEQKTVEIPDPVEAGEEVKVRMDLLPLHMGLHKLVVNFESDKLKAVKGFRNVIIGPA
modifications: Z-PIMen(OEt)-QPL-OMe inhibitor adduct

What was measured:
[1] = enzymatic activity of truncated tissue transglutaminases; type: biochemical
Excerpt: Tissue transglutaminase fragments were produced recombinantly in E. coli as deletion mutants lacking C-terminal amino acids from positions S538 and E447 according to example 1 an methods known to persons skilled in the art. The resulting truncated tissue transglutaminases still were enzymatically active, although the activity was reduced to 5 and 1% respectively compared to the full length enzyme. Transglutaminase 6 fragment lacking the C-terminal amino acids from position G594 was produced accordingly.

[2] = tested on: Patient F (celiac disease); test: hyposensitisation of a celiac disease patient with open TG2; type: in vivo, human; conditions: subcutaneous, 6 months weekly rising doses, then monthly 1.5 years; then 1 g gluten per day
Excerpt: Patient F suffered from celiac disease and has been on gluten free diet for 8 years. […] Patient F has been injected subcutaneously a solution containing open TG2, which has been produced according to example 1. Injections have been repeated weekly over a period of six months; the doses have been increased over this period in order to reach the maintenance dose. The application has then been repeated applying the maintenance dose once a month for 1.5 years. Patient F was kept on a strict gluten free diet for this whole hyposensitisation therapy period. Later-on the patient started to consume minor amounts (1 g per day) of gluten in addition to the gluten free diet.

Molecule | enzymatic activity compared to the full length enzyme [1] [%] | celiac disease symptoms after hyposensitisation therapy [2]
B1 | 1 | –
B2 | 5 | –
B3 | – | No celiac disease symptoms could be measured clinically or by biopsy or serology
